These are literature values, as cited in article PMC2948943.

In the data set the target is UmuD (Escherichia coli) (UniProt P0AG11).

Chain of UmuD (P0AG11 25-139): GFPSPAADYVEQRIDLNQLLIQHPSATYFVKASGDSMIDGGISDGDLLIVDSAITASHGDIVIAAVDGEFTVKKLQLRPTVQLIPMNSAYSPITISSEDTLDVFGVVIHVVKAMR

In the case of UmuD (from UniProt P0AG11), the Kd (in general, the constant that tells how readily two partners part at equilibrium) is less than 0.01 nM.
